# Measured values as given in patent US20210079087A1 (REMD BIOTHERAPEUTICS, published 2021).
# Numbering of substitutions follows the chain as printed.
# B1: 23A4D8 (antibody, mouse IgG2a, V domains shown)
# VH: EVQLQQSGPELVKPGASVKISCKASGFTFTDYYMNWMKQSHGKSLEWIGDINPKNGGTIFNQNFRGKATLTVDKSSSTAYMELRSLTSEDSAVYYCARSILTGPFYFDYWGQGTTLTVSS
# VL: DIVLTQSPASLAVSLGQRAIISCKASQSVSFAGTGLMHWYQQKSGQQPKLLISRASNLEAGVPTRFSGSGSRTDFTLNIHPVEEDDAATYYCQQTMEYPTFGGGTKLEIK
# notes: also called Murine 23A4D8; parental
# B2: 22E2G4 (antibody, mouse IgG1, V domains shown)
# VH: QVQLQQPGAELVMPGTSVRLSCKASGYTFTSYWMHWVKQRPGQGLEWIGEIDPSDTYTNYNPKFKGKATLTVDKSSSTAYMQFTSLTSEDSAVYYCARSGIYYDYYEDYWGQGTTLTVSS
# VL: DVVMTQTPLSLPVSLGDQASISCRSSQILLHSNGNTYLHWYLQKPGQSPKLLIYKVSNRFSGVPDRFSGSGSGTDFTLKISRVEAEDLGVYFCSQSVHVPTFGGGTKLEIK
# notes: amino acids 1-19 are stated as the leader; also called A3
# B3: 24F11E4 (antibody, mouse IgG1, V domains shown)
# VH: B2 VH with T16A, S31N, M34I, Y57F, N61S, F83L, S85G, Y95F
# VL: B2 VL with A19V, E86D
# notes: amino acids 1-19 are stated as the leader; also called A5
# B4: 26G11B11 (antibody, mouse IgG1, V domains shown)
# VH: B2 VH with T16A, R19K, S25A, T56S, P62Q, F83L, T84S
# VL: B2 VL with I28S, L30V, V97I
# notes: amino acids 1-19 are stated as the leader; also called A6
# B5: 4H11C7 (antibody, mouse IgG1, V domains shown)
# VH: QVTLKESGPGILQPSQTLSLTCSFSGFSLNTFGMGVDWIRQPSGKGLEWLAHIWWDDDKYYNPALESRLTISKDASKNQVFLKIANVDTADTATYYCSRRELGPYFFDYWGQGTTLTVSS
# VL: GVLMTQTPLSLPVSLGDQASISCRSSQSIVHSNGNTYLEWYLQKPGQSPKLLIYKVSNRFSGVPDRFSGSGSGTDFTLKINRVEAEDLGVYYCFQGSHFPYTFGGGTKLEID
# notes: amino acids 1-19 are stated as the leader; also called A1
# B6: 8A5G4 (antibody, V domains shown)
# VH: QVELKESGPGLVAPSQSLSITCTVSGFSLTSYGVYWVRQPPGKGLEWLVVIWSDGTTTYNSALKSRLSISKDNSKSQVFLKMNSLQTDDTAMYYCARQGDNYSYAVDYWGQGTAVTVSS
# VL: DVVMIQIPLSLPVSLGDQASISCRSSQSLVHSNGNTYLHWYLQKPGQSPKLLIYKVFNRFSGVPDRFSGSGSGTDFTLKISRVEAEDLGVYFCSQSTHAPLTFGAGTKLELK
# notes: amino acids 1-19 are stated as the leader; also called A2
# B7: REMD 155.1 (antibody, human IgG4 S228P, kappa, V domains shown)
# VH: QVQLVQSGAEVKKPGASVKVSCKASGFTFTDYYMNWVRQAPGQGLEWMGDINPKNGGTIFNQNFRGRVTMTRDTSISTAYMELSRLRSDDTAVYYCARSILTGPFYFDYWGQGTLVTVSS
# VL: DIVMTQSPDSLAVSLGERATINCKASQSVSFAGTGLMHWYQQKPGQQPKLLIYRASNLEAGVPDRFSGSGSGTDFTLTISSLQAEDVAVYYCQQTMEYPTFGGGTKLEIKR
# notes: Humanized antibody derived from 23A4D8; also called IgG 2 (H1/L2); H1 + L2
# B8: REMD 155 (antibody, human IgG4 S228P, kappa, V domains shown)
# VH: B7 VH
# VL: B7 VL with Q47P
# notes: Humanized antibody derived from 23A4D8; also called IgG 1 (H1/L1); H1 + L1
# B9: REMD 155.2 (antibody, human IgG4 S228P, kappa, V domains shown)
# VH: B7 VH
# VL: B7 VL with M4L, L82V
# notes: Humanized antibody derived from 23A4D8; also called IgG 4 (H1/L4); H1 + L4
# B10: chimeric IgG4 (murine-human chimeric antibody derived from murine antibody A4 and human IgG4) (antibody, V domains shown)
# VH: B1 VH
# VL: DIVLTQSPASLAVSLGQRAIISCKASQSVSFAGTGLMHWYQQKSGQQPKLLISRASNLEAGVPTRFSGSGSRTDFTLNIHPVEEDDAATYYCQQTMEYPTFGGGTKLEIKR
# notes: also called Chimeric Ab
# Target: T1, human IL-17A (human, UniProt Q16552 24-155)
# Test: cell-based or functional assay
# T1 sequence (Q16552 24-155 limits assumed): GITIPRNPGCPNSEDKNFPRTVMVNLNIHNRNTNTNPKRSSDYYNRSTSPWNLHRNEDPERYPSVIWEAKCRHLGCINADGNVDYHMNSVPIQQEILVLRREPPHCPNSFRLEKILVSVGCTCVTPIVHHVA
row,Binder,"IC50 (nM), IL6 production by TNFα-primed NIH3T3 cells stimulated with human IL-17A [nM]"
1,B1,0.581
2,B2,0.534
3,B3,0.138
4,B4,0.544
5,B5,0.953
6,B6,0.47

# Target: T1, human IL-17A
# Test: cell-based or functional assay
# Remark: another data set of the same source
row,Binder,"IC50 (nM), NIH3T3 in vitro functional assay described in Example 1 (IL-6 production) [nM]"
1,B1,0.703
2,B7,0.995
3,B8,0.88
4,B9,0.975

# Target: T1, human IL-17A
# Test: IL-17A/IL-17R blocking ELISA
row,Binder,IC50 [nM]
1,B1,2.07
2,B2,3.04
3,B3,2.15
4,B4,2.19
5,B5,2.44
6,B6,1.65

# Target: T2, cyno primate IL-17A (cyno primate, UniProt A0A2K5TTB0 24-155)
# T2 construct: Antigen of the primate crossreactivity ELISA; construct not described; also called Cy IL-17
# Test: ELISA, binding to cyno IL-17A
# T2 sequence (A0A2K5TTB0 entry or part of it): as the sequence (Q16552 24-155 limits assumed) above, with T3A, P8S, N34S, I77V, N78K, P104R counted along it
row,Binder,EC50 [nM]
1,B1,0.004
2,B2,0.013
3,B3,0.01
4,B4,0.012
5,B5,0.016
6,B6,0.008

# Target: T1, human IL-17A
# Test: ELISA, binding to human IL-17A
row,Binder,EC50 [nM]
1,B1,0.08
2,B2,0.15
3,B3,0.16
4,B4,0.12
5,B5,0.19
6,B6,0.1

# Target: T3, murine IL-17A (murine, UniProt Q62386 26-158, limits assumed)
# T3 construct: Antigen of the murine IL-17A crossreactivity ELISA; construct not described; also called mouse IL-17A
# T3 sequence (looked up): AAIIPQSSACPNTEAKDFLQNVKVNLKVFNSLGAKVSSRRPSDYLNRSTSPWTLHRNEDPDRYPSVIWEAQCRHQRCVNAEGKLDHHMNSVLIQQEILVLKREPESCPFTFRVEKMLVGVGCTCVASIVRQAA
# Test: murine IL-17A crossreactivity ELISA
row,Binder,binding result
1,B1,no binding
2,B2,no binding
3,B3,no binding
4,B4,no binding
5,B5,no binding
6,B6,no binding

# Target: T1, human IL-17A
# Test: SPR, Biacore 8k; antibody amine-coupled to the chip, IL-17A as analyte
# Procedure: (§1) The recombinant IgGs secreted to the medium and were purified using protein A affinity chromatography. […] Antibodies were immobilized on the sensor chip through amine coupling method. […] The data of dissociation (kd) and association (ka) rate constants were obtained using Biacore 8k evaluation software. The equilibrium dissociation constants (KD) were calculated from the ratio of kd over ka.
Binder,Kd [nM],koff [s⁻¹],kon [M⁻¹ s⁻¹]
B1,0.00489,1.22e-05,2.5e+06
B7,≤ 0.00361,≤ 1e-05,2.77e+06
B8,0.00552,1.35e-05,2.45e+06
B9,≤ 0.00346,≤ 1e-05,2.89e+06
B10,0.00515,–,1.94e+06

# Target: T1, human IL-17A
# Test: SPR, Biacore T200; antibody amine-coupled to the chip, IL-17A as analyte
# Procedure: The data of dissociation (kd) and association (kₐ) rate constants were obtained using Biacore T200 evaluation software. The equilibrium dissociation constants (KD) were calculated from the ratio of kd over kₐ.
Binder,Kd [nM],koff [s⁻¹],kon [M⁻¹ s⁻¹]
B10,≤ 0.00493,≤ 1e-05,2.03e+06

# Target: T1, human IL-17A
# Test: SPR, Biacore 8k; antibody amine-coupled to the chip, IL-17A as analyte (second, unlabelled row)
# Procedure: as §1
Binder,Kd [nM],koff [s⁻¹]
B10,0.00439,1e-05

# Target: T1, human IL-17A
# Test: SPR, Biacore 8k; antibody amine-coupled to the chip, IL-17A as analyte; first of two Chimeric Ab rows (ka 1.94E+06)
# Procedure: as §1
row,Binder,koff [s⁻¹]
1,B10,≤ 1e-05

# Target: T1, human IL-17A
# Test: SPR, Biacore 8k; antibody amine-coupled to the chip, IL-17A as analyte (second, unlabelled row); second, unlabelled row under Chimeric Ab
# Procedure: as §1
row,Binder,kon [M⁻¹ s⁻¹]
1,B10,2.28e+06
